Measurements taken from patent publication US20180094075A1 (Pfizer, published 2018).

Assays:
[1] = biological target: human PTK7 expressed on cells (cancer cell lines with endogenous PTK7; HEK293T-PTK7 over-expressing cells) (human) (UniProt Q13308); assay: flow cytometry, DMS79 cells, 10 µg/ml Ab
[2] = biological target: human PTK7 expressed on cells (cancer cell lines with endogenous PTK7; HEK293T-PTK7 over-expressing cells) (human) (UniProt Q13308); assay: flow cytometry, THP-1 cells, 10 µg/ml Ab
[3] = biological target: human PTK7 expressed on cells (cancer cell lines with endogenous PTK7; HEK293T-PTK7 over-expressing cells) (human) (UniProt Q13308); assay: flow cytometry, Raji cells, 10 µg/ml Ab
[4] = biological target: human PTK7 expressed on cells (cancer cell lines with endogenous PTK7; HEK293T-PTK7 over-expressing cells) (human) (UniProt Q13308); assay: flow cytometry, HCC827 cells, 10 µg/ml Ab
[5] = biological target: human PTK7 expressed on cells (cancer cell lines with endogenous PTK7; HEK293T-PTK7 over-expressing cells) (human) (UniProt Q13308); assay: flow cytometry, H358 cells, 10 µg/ml Ab
[6] = biological target: human PTK7 expressed on cells (cancer cell lines with endogenous PTK7; HEK293T-PTK7 over-expressing cells) (human) (UniProt Q13308); assay: flow cytometry, H1975 cells, 10 µg/ml Ab
[7] = biological target: human PTK7 expressed on cells (cancer cell lines with endogenous PTK7; HEK293T-PTK7 over-expressing cells) (human) (UniProt Q13308); assay: flow cytometry, K562 cells, 10 µg/ml Ab
[8] = biological target: human PTK7 expressed on cells (cancer cell lines with endogenous PTK7; HEK293T-PTK7 over-expressing cells) (human) (UniProt Q13308); assay: flow cytometry, HCT116 cells, 10 µg/ml Ab
[9] = biological target: human PTK7 expressed on cells (cancer cell lines with endogenous PTK7; HEK293T-PTK7 over-expressing cells) (human) (UniProt Q13308); assay: flow cytometry, EKVX cells, 10 µg/ml Ab
[10] = biological target: human PTK7 expressed on cells (cancer cell lines with endogenous PTK7; HEK293T-PTK7 over-expressing cells) (human) (UniProt Q13308); assay: flow cytometry, DMS114 cells, 10 µg/ml Ab
[11] = biological target: human PTK7 expressed on cells (cancer cell lines with endogenous PTK7; HEK293T-PTK7 over-expressing cells) (human) (UniProt Q13308); assay: flow cytometry, H522 cells, 10 µg/ml Ab
[12] = biological target: human PTK7 expressed on cells (cancer cell lines with endogenous PTK7; HEK293T-PTK7 over-expressing cells) (human) (UniProt Q13308); assay: flow cytometry, H1048 cells, 10 µg/ml Ab
[13] = biological target: human PTK7 expressed on cells (cancer cell lines with endogenous PTK7; HEK293T-PTK7 over-expressing cells) (human) (UniProt Q13308); assay: flow cytometry, Hs578T cells, 10 µg/ml Ab
[14] = biological target: human PTK7 expressed on cells (cancer cell lines with endogenous PTK7; HEK293T-PTK7 over-expressing cells) (human) (UniProt Q13308); assay: flow cytometry, BT-549 cells, 10 µg/ml Ab
[15] = biological target: human PTK7 expressed on cells (cancer cell lines with endogenous PTK7; HEK293T-PTK7 over-expressing cells) (human) (UniProt Q13308); assay: flow cytometry, HCC1937 cells, 10 µg/ml Ab
[16] = biological target: human PTK7 expressed on cells (cancer cell lines with endogenous PTK7; HEK293T-PTK7 over-expressing cells) (human) (UniProt Q13308); assay: flow cytometry, H1299 cells, 10 µg/ml Ab
[17] = biological target: human PTK7 expressed on cells (cancer cell lines with endogenous PTK7; HEK293T-PTK7 over-expressing cells) (human) (UniProt Q13308); assay: flow cytometry, HL60 MX2 cells, 10 µg/ml Ab
[18] = biological target: human PTK7 expressed on cells (cancer cell lines with endogenous PTK7; HEK293T-PTK7 over-expressing cells) (human) (UniProt Q13308); assay: flow cytometry, MDAMB436 cells, 10 µg/ml Ab
[19] = biological target: human PTK7 expressed on cells (cancer cell lines with endogenous PTK7; HEK293T-PTK7 over-expressing cells) (human) (UniProt Q13308); assay: flow cytometry, RL cells, 10 µg/ml Ab
[20] = biological target: human PTK7 expressed on cells (cancer cell lines with endogenous PTK7; HEK293T-PTK7 over-expressing cells) (human) (UniProt Q13308); assay: flow cytometry, MDAMB361-DYT2 cells, 10 µg/ml Ab

Sequence of human PTK7 expressed on cells (cancer cell lines with endogenous PTK7; HEK293T-PTK7 over-expressing cells) (human) (Q13308 31-1070 L93P limits assumed): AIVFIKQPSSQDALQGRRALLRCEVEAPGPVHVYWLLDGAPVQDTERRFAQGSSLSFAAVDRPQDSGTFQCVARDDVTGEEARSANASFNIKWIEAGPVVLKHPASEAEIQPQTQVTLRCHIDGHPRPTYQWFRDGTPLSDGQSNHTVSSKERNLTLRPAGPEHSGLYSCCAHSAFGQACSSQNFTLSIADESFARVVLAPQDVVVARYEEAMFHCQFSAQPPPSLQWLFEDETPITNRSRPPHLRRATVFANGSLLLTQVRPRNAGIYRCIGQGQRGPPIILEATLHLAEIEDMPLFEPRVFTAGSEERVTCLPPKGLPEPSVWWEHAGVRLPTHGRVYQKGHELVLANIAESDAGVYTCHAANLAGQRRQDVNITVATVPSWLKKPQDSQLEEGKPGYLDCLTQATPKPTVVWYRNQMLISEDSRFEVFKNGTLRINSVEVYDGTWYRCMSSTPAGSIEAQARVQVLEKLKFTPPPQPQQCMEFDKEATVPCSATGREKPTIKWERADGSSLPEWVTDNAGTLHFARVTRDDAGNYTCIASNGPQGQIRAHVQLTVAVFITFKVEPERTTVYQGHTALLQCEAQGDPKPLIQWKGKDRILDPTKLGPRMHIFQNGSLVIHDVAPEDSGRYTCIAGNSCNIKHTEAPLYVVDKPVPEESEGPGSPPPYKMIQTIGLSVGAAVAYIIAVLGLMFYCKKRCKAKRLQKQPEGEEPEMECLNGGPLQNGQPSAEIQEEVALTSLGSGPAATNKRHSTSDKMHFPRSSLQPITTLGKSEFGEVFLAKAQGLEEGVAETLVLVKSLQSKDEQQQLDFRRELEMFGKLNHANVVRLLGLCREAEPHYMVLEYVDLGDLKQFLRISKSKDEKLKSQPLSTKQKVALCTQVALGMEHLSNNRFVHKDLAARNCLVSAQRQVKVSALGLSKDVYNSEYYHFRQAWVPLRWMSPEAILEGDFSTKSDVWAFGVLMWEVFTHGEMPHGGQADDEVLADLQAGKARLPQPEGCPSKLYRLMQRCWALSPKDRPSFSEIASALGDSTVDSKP

Mean Fluorescent Intensity [1]: 8.5
Mean Fluorescent Intensity [2]: 4
Mean Fluorescent Intensity [3]: 20.3
Mean Fluorescent Intensity [4]: 5.8
Mean Fluorescent Intensity [5]: 4.5
Mean Fluorescent Intensity [6]: 4.8
Mean Fluorescent Intensity [7]: 54.7
Mean Fluorescent Intensity [8]: 17.8
Mean Fluorescent Intensity [9]: 3.1
Mean Fluorescent Intensity [10]: 9.9
Mean Fluorescent Intensity [11]: 3.8
Mean Fluorescent Intensity [12]: 4.4
Mean Fluorescent Intensity [13]: 2.7
Mean Fluorescent Intensity [14]: 3.6
Mean Fluorescent Intensity [15]: 7.8
Mean Fluorescent Intensity [16]: 3
Mean Fluorescent Intensity [17]: 25.2
Mean Fluorescent Intensity [18]: 3.5
Mean Fluorescent Intensity [19]: 29.8
Mean Fluorescent Intensity [20]: 8.7
Substance: Negative Control Ab (Table 8) (antibody)
